The values that follow come from patent US20100035825.

The target of data set [1] is T1, Ac-KKPD^105-CHO.
T1 chain: KKPD

In data set [2] the target is T2, Ac-KE^217VD-CHO.
T2 chain: KEVD

B1: purified recombinant procaspase 8 (human, Alexis Biochemicals) (protein)
chain: SESQTLDKVYQMKSKPRGYCLIINNHNFAKAREKVPKLHSIRDRNGTHLDAGALTTTFEELHFEIKPHDDCTVEQIYEILKIYQLMDHSNMDCFICCILSHGDKGIIYGTDGQEAPIYELTSQFTGLKCPSLAGKPKVFFIQACQGDNYQKGIPVETDSEEQPYLEMDLSSPQTRYIPDEADFLLGMATVNNCVSYRNPAEGTWYIQSLCQSLRERCPRGDDILTILTEVNYEVSNKDDKKNMGKQMPQPTFTLRKKLVFPSD
On to B1, for which the “in vitro self-activation of caspase 8 (colorimetric substrate, tetrapeptides at 200 µM)” value in data set [1] and in data set [2] was “inhibited” throughout.
